# Assay results reported in IntAct's records for PubMed 23503662.
# B1: Cryptochrome-2 (Mus musculus), Q9R194 (parent)
# chain: MAAAAVVAATVPAQSMGADGASSVHWFRKGLRLHDNPALLAAVRGARCVRCVYILDPWFAASSSVGINRWRFLLQSLEDLDTSLRKLNSRLFVVRGQPADVFPRLFKEWGVTRLTFEYDSEPFGKERDAAIMKMAKEAGVEVVTENSHTLYDLDRIIELNGQKPPLTYKRFQALISRMELPKKPAVAVSSQQMESCRAEIQENHDDTYGVPSLEELGFPTEGLGPAVWQGGETEALARLDKHLERKAWVANYERPRMNANSLLASPTGLSPYLRFGCLSCRLFYYRLWDLYKKVKRNSTPPLSLFGQLLWREFFYTAATNNPRFDRMEGNPICIQIPWDRNPEALAKWAEGKTGFPWIDAIMTQLRQEGWIHHLARHAVACFLTRGDLWVSWESGVRVFDELLLDADFSVNAGSWMWLSCSAFFQQFFHCYCPVGFGRRTDPSGDYIRRYLPKLKGFPSRYIYEPWNAPESVQKAAKCIIGVDYPRPIVNHAETSRLNIERMKQIYQQLSRYRGLCLLASVPSCVEDLSHPVAEPGSSQAGSISNTGPRALSSGPASPKRKLEAAEEPPGEELTKRARVTEMPTQEPASKDS
# B2: F-box/LRR-repeat protein 3 (Homo sapiens), Q9UKT7 (parent)
# chain: MKRGGRDSDRNSSEEGTAEKSKKLRTTNEHSQTCDWGNLLQDIILQVFKYLPLLDRAHASQVCRNWNQVFHMPDLWRCFEFELNQPATSYLKATHPELIKQIIKRHSNHLQYVSFKVDSSKESAEAACDILSQLVNCSLKTLGLISTARPSFMDLPKSHFISALTVVFVNSKSLSSLKIDDTPVDDPSLKVLVANNSDTLKLLKMSSCPHVSPAGILCVADQCHGLRELALNYHLLSDELLLALSSEKHVRLEHLRIDVVSENPGQTHFHTIQKSSWDAFIRHSPKVNLVMYFFLYEEEFDPFFRYEIPATHLYFGRSVSKDVLGRVGMTCPRLVELVVCANGLRPLDEELIRIAERCKNLSAIGLGECEVSCSAFVEFVKMCGGRLSQLSIMEEVLIPDQKYSLEQIHWEVSKHLGRVWFPDMMPTW
# partner: B1 chain
# Variants of: B1
# Conditions: with per1_human PER1, O15534
# per1_human PER1, O15534, sequence (O15534 whole entry): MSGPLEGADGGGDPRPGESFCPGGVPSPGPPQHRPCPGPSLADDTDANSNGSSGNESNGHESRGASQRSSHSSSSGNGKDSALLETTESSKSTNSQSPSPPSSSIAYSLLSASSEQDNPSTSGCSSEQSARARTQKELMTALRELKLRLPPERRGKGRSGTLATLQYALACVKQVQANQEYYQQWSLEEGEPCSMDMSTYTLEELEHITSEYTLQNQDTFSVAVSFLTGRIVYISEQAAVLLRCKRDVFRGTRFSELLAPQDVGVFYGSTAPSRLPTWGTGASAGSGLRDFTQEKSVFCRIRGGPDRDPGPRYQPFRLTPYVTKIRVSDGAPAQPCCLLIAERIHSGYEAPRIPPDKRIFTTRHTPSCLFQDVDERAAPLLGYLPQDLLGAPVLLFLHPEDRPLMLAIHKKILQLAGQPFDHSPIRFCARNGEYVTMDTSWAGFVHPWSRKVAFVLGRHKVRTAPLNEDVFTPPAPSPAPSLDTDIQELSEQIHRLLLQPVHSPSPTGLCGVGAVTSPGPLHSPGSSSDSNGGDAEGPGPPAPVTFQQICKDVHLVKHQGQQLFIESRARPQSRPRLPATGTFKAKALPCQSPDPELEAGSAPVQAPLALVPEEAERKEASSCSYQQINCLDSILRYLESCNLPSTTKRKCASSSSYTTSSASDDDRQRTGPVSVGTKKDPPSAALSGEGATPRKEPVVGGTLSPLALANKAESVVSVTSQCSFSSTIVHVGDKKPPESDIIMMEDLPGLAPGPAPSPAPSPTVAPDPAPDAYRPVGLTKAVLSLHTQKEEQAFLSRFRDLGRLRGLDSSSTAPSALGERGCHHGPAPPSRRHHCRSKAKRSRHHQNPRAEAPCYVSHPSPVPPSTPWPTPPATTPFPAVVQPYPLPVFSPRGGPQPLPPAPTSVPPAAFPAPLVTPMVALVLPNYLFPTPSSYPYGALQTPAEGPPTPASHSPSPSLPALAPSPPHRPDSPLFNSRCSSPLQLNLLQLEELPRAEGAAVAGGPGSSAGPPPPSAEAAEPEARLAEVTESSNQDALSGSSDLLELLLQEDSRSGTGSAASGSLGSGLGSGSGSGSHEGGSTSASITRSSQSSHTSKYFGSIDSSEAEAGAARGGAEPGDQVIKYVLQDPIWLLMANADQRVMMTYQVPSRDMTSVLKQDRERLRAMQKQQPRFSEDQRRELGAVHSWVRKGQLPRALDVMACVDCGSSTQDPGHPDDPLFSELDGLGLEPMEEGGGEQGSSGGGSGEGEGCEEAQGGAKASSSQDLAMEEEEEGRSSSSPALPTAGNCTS
row,Variant,effect of a mutation on the interaction
1,D339R,disrupting interaction strength

# Variants of: B2
# Conditions: with cry2_mouse Cry2, Q9R194
row,Variant,effect of a mutation on the interaction
1,P426A,disrupting interaction strength
2,E336A,disrupting interaction strength
3,Y314A,disrupting interaction strength
4,Y292A,decreasing interaction strength
5,W428A,decreasing interaction strength
